Test results taken from the supplement of paper PMC9112550, “Optimization of the antimicrobial peptide Bac7 by deep mutational scanning” (BMC Biology, 2022).

Test system: Escherichia coli TOP10
Assay: shrunken log2 fold change of peptide-encoding DNA abundance (4.5 h post-induction vs induction); higher = less antimicrobial activity (less host growth inhibition)
Settings: time post-induction: 4.5 h; library: site-saturation at positions 5, 18, 19, 20
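Also: peptides expressed intracellularly from a pBAD plasmid library in pooled LB shake-flask culture, induced with 0.3% L-arabinose, DNA abundance read by NGS, three biological replicates, DESeq2 with apeglm shrinkage.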

Sequence | shrunken log2 fold change
RRIRPRPPRLPRPRPRPIDAPRP | 0.159
RRIRDRPPRLPRPRPRPQKCPRP | 0.0207
RRIRERPPRLPRPRPRPQILPRP | -0.179
RRIRGRPPRLPRPRPRPNYCPRP | 0.00136
RRIRGRPPRLPRPRPRPTSHPRP | 0.64
RRIRVRPPRLPRPRPRPLCKPRP | -0.394
RRIRVRPPRLPRPRPRPLLVPRP | -0.101
RRIRHRPPRLPRPRPRPHYEPRP | 0.0367
RRIRARPPRLPRPRPRPSSVPRP | -0.0486
RRIRTRPPRLPRPRPRPYDYPRP | -0.00193
RRIRVRPPRLPRPRPRPNFTPRP | 0.0054
RRIRLRPPRLPRPRPRPMDPPRP | 0.0507
RRIRWRPPRLPRPRPRPPAIPRP | 0.178
RRIRHRPPRLPRPRPRPHWWPRP | 0.0507
RRIRDRPPRLPRPRPRPMHDPRP | 0.122
RRIRNRPPRLPRPRPRPEILPRP | -0.0178
RRIRPRPPRLPRPRPRPKMVPRP | 0.0319
RRIRQRPPRLPRPRPRPQNSPRP | -0.0328
RRIRWRPPRLPRPRPRPLHHPRP | -0.0749
RRIRYRPPRLPRPRPRPDPVPRP | -0.0502
RRIRLRPPRLPRPRPRPSDSPRP | -0.498
RRIRCRPPRLPRPRPRPLPPPRP | 0.733

Sequence | shrunken log2 fold change
RRIRQRPPRLPRPRPRPKTTPRP | -0.636
RRIRVRPPRLPRPRPRPLSNPRP | -0.413
RRIRSRPPRLPRPRPRPHQQPRP | -0.0386
RRIRERPPRLPRPRPRPLMIPRP | -0.348
RRIRWRPPRLPRPRPRPSITPRP | -0.0237
RRIRVRPPRLPRPRPRPIDYPRP | 0.0808
RRIRWRPPRLPRPRPRPPTHPRP | 0.469
RRIRCRPPRLPRPRPRPATAPRP | 0.41
RRIRWRPPRLPRPRPRPSIQPRP | -0.0487
RRIRRRPPRLPRPRPRPLHYPRP | 0.239
RRIRNRPPRLPRPRPRPCDEPRP | -0.035
RRIRSRPPRLPRPRPRPCGKPRP | 0.027
RRIRQRPPRLPRPRPRPYNEPRP | -0.184
RRIRIRPPRLPRPRPRPKYRPRP | 0.0239
RRIRIRPPRLPRPRPRPPRFPRP | 0.0593
RRIRDRPPRLPRPRPRPGYQPRP | -0.0782
RRIRPRPPRLPRPRPRPDGPPRP | -0.101
RRIRRRPPRLPRPRPRPMMDPRP | -0.00156
RRIRERPPRLPRPRPRPMQMPRP | -0.254
RRIRFRPPRLPRPRPRPVWPPRP | 0.263
RRIRHRPPRLPRPRPRPFRTPRP | -0.0018
RRIRIRPPRLPRPRPRPNDYPRP | -0.312

Sequence | shrunken log2 fold change
RRIRTRPPRLPRPRPRPYVCPRP | -0.215
RRIRKRPPRLPRPRPRPSKSPRP | -0.141
RRIRWRPPRLPRPRPRPRPTPRP | 0.547
RRIRGRPPRLPRPRPRPNVDPRP | 0.715
RRIRSRPPRLPRPRPRPGPHPRP | -0.109
RRIRMRPPRLPRPRPRPSCIPRP | -0.27
RRIRGRPPRLPRPRPRPMWSPRP | 0.89
RRIRKRPPRLPRPRPRPWIGPRP | 0.0664
RRIRCRPPRLPRPRPRPSTRPRP | -0.119
RRIRVRPPRLPRPRPRPRDVPRP | -0.113
RRIRSRPPRLPRPRPRPGKRPRP | -0.0142
RRIRMRPPRLPRPRPRPMNMPRP | -0.344
RRIRGRPPRLPRPRPRPNFVPRP | -0.0668
RRIRPRPPRLPRPRPRPTESPRP | -0.041
RRIRVRPPRLPRPRPRPEVEPRP | -0.0626
RRIRHRPPRLPRPRPRPIWPPRP | 0.0213
RRIRHRPPRLPRPRPRPHLQPRP | -0.129
RRIRPRPPRLPRPRPRPFREPRP | 0.261
RRIRWRPPRLPRPRPRPHNVPRP | -0.178
RRIRKRPPRLPRPRPRPVENPRP | 0.198
RRIRLRPPRLPRPRPRPRCLPRP | 0.18
RRIRYRPPRLPRPRPRPSSGPRP | 0.00646

Sequence | shrunken log2 fold change
RRIRLRPPRLPRPRPRPKQVPRP | -0.0171
RRIRGRPPRLPRPRPRPQQGPRP | 0.0431
RRIRLRPPRLPRPRPRPMEGPRP | 0.0303
RRIRSRPPRLPRPRPRPHRWPRP | 0.0724
RRIRWRPPRLPRPRPRPPMYPRP | -0.216
RRIRMRPPRLPRPRPRPVPIPRP | 0.0109
RRIRNRPPRLPRPRPRPPMTPRP | 1.77
RRIRMRPPRLPRPRPRPAIEPRP | 0.112
RRIRYRPPRLPRPRPRPARAPRP | 0.524
RRIRSRPPRLPRPRPRPECGPRP | 0.646
RRIRCRPPRLPRPRPRPREVPRP | 0.415
RRIRVRPPRLPRPRPRPIHRPRP | -0.3
RRIRNRPPRLPRPRPRPGIGPRP | 0.239
RRIRWRPPRLPRPRPRPTAMPRP | 0.814
RRIRNRPPRLPRPRPRPFRVPRP | -0.17
RRIRGRPPRLPRPRPRPNLAPRP | 0.961
RRIRKRPPRLPRPRPRPIMHPRP | -0.204
RRIRSRPPRLPRPRPRPENPPRP | -0.143
RRIRNRPPRLPRPRPRPNMHPRP | -0.433
RRIRMRPPRLPRPRPRPFGLPRP | -0.0107
RRIRNRPPRLPRPRPRPMIGPRP | -0.536
RRIRNRPPRLPRPRPRPRFCPRP | 0.254

Sequence | shrunken log2 fold change
RRIRQRPPRLPRPRPRPQMDPRP | -0.0516
RRIRYRPPRLPRPRPRPVIVPRP | -0.877
RRIRKRPPRLPRPRPRPMGAPRP | 0.414
RRIRCRPPRLPRPRPRPYPGPRP | -0.0268
RRIRSRPPRLPRPRPRPEWKPRP | 0.14
RRIRMRPPRLPRPRPRPRLVPRP | 0.76
RRIRRRPPRLPRPRPRPFAWPRP | 0.189
RRIRSRPPRLPRPRPRPDCLPRP | -0.11
RRIRMRPPRLPRPRPRPMPSPRP | 0.262
RRIRERPPRLPRPRPRPFIPPRP | -0.481
RRIRRRPPRLPRPRPRPMHNPRP | 0.384
RRIRIRPPRLPRPRPRPNEAPRP | 0.135
RRIRTRPPRLPRPRPRPWVLPRP | -0.0462
RRIRSRPPRLPRPRPRPRCTPRP | 0.0731
RRIRDRPPRLPRPRPRPMTPPRP | -0.0805
RRIRLRPPRLPRPRPRPFTRPRP | -0.0482
RRIRNRPPRLPRPRPRPQSLPRP | -0.139
RRIRRRPPRLPRPRPRPFDPPRP | 0.504
RRIRDRPPRLPRPRPRPWFTPRP | -0.175
RRIRARPPRLPRPRPRPTSGPRP | 0.343
RRIRTRPPRLPRPRPRPVWVPRP | -0.0284
